Experimental data from patent US20220177587A1, “METHODS AND USES OF VARIANT CD80 FUSION PROTEINS AND RELATED CONSTRUCTS” (Alpine Immune Sciences, Inc., priority 2018, published 2022).

Legend:
CD28 [1] = target: T1, CD28 (Homo sapiens, UniProt P10747); test: CD28 costimulation via Fc receptor or PD-L1 dependent cross-linking (Jurkat/IL2 + K562/OKT3 +/- PD-L1); assay type: cell-based; design: host or cells: Jurkat cells expressing an IL-2-luciferase reporter; conditions: K562/0KT3 aAPC, luciferase signal
Method: In a further experiment, CD28 costimulation was assessed for variant CD80-IgV-Fc fusion proteins, where the Fc was an IgG1 Fc (e.g. SEQ ID NO:1517) capable of mediating effector activity via binding to Fc receptors (FcR). The experiment was carried out as described in part A above, except CD32-expressing K562 cells stably transduced with OKT3 (K562/OKT3) or OKT3 and PD-L1 (K562/OKT3/PD-L1) were used instead of the CHO/OKT3 and CHO/OKT3/PD-L1 cells, and the results are depicted in Table E9.

Pan T cells = test: Primary T cell stimulation assay with K562/OKT3 +/- PD-L1 (IL-2, IFN-gamma, proliferation); assay type: cell-based, human; conditions: 1, 10, 100 nM; 72 hr
Method: IFN-gamma, IL-2 and proliferation were determined after 72 hr. incubation.

CD28 [2] = target: T1, CD28; test: Jurkat/IL2 + CHO/OKT3 +/- PD-L1 reporter assay: PD-L1-dependent CD28 costimulation; assay type: cell-based; design: host or cells: Jurkat cells expressing an IL-2-luciferase reporter; conditions: for PD-L1-Dependent CD28 Costimulation, +PD-L1, 0.6 nM / PD-L1-Dependent CD28 Costimulation, +PD-L1, 50 nM: CHO/OKT3/PD-L1 aAPC; for PD-L1-Dependent CD28 Costimulation, +PD-L1, 0.6 nM / PD-L1-Dependent CD28 Costimulation, +PD-L1, 50 nM / PD-L1-Dependent CD28 Costimulation, No PD-L1, 50 nM / PD-L1-Dependent CD28 Costimulation, No PD-L1, […]: luciferase signal; for PD-L1-Dependent CD28 Costimulation, No PD-L1, 50 nM / PD-L1-Dependent CD28 Costimulation, No PD-L1, […]: CHO/OKT3 aAPC
How it was run: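 Jurkat reporter cells (100,000/well) preincubated 15 min at room temperature with test protein, then cocultured 5 h at 37 °C with CHO aAPCs bearing anti-CD3 scFv (OKT3) with or without PD-L1. Luciferase luminescence (RLU) read after lysis-substrate addition.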

CD28 [3] = target: T1, CD28; test: Jurkat/IL2 reporter assay: blockade of CD28 costimulation (plate-bound anti-CD3/CD86-Fc); assay type: cell-based; design: host or cells: Jurkat cells expressing an IL-2-luciferase reporter; conditions: Table E5; protein diluted to 40 nM before mixing with cells; 5 hours
How it was run: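 Jurkat cells carrying an IL-2–luciferase reporter were preincubated 15 min at room temperature with CD80-Fc fusion molecules, then added to plates coated overnight with anti-CD3 and CD86-Fc. After 5 h at 37 °C, luciferase luminescence was read with Bio-Glo.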

CD28 [4] = target: T1, CD28; test: Flow binding to Jurkat/IL2 reporter cells (CD28); design: host or cells: Jurkat cells expressing an IL-2-luciferase reporter; conditions: for CD28 MFI at 33.3 nM: Table E19, Jurkats (CD28)
How it was run: (§1)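 Flow cytometry on transfected CHO cells or CD28+ Jurkat/IL2 reporter cells, blocked 20 min in PBS/1% BSA/0.1% azide. Fusion protein 45 min on ice; PE anti-human Fc 1:150, 30 min on ice; fixed in 2% formaldehyde. Read-out PE MFI, EC50 calculated.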

huPD-L1 = huPD-L1 (Homo sapiens, UniProt Q9NZQ7); test: Flow binding to CHO cells stably expressing PD-L1; design: huCTLA4 and huPD-L1, full-length mammalian surface expression constructs were generated; expressed in transfected cells; host or cells: CHO cells, lentiviral transduction, sorted to >98% purity; conditions: for PD-L1 MFI at 33.3 nM: Table E19, CHO cells stably expressing PD-L1
How it was run: as §1

MC38 hPD-L1 tumor cells = test: MC38 hPD-L1 tumor model in C57BL/6 mice; assay type: in vivo, mouse
Method: Mouse MC38 tumor cells were stably transfected with human PD-L1 (MC38 hPD-L1) and implanted subcutaneously into C57BU6 mice. […] Tumor volume was tracked over time.
70 female C57CL/6 mice, containing similar tumor volumes of approximately 50-51 mm^3, following implantation of MC38 hPD-L1 tumor cells, were staged and divided into 5 treatment groups containing 14 mice each. […] Tumor volumes were measured on days 7, 10, and 12. On day 13, 5 animals were sacrificed for analysis as described in the sections below. Tumor measurements resumed for the remaining 9 mice for each group on days 17, 20 and 27. On days 26, 28, and 31, the animals in Group 1 (Fc isotype control) received an intratumoral injection of 100 μg E35D/M47L CD80-IgV-Fc.
95 female C57BU6 mice were implanted with MC38 hPD-L1 tumor cells. The tumors were staged on Day 7, and 77 mice with similar tumor volumes of approximately 60 mm^3 were divided into 7 treatment groups containing 11 mice each.
On day 49, tumor-free mice, from Groups 3, 4, 6, and 7, and 2 naïve C57CL/6 mice were re-challenged with an additional injection of hPD-L1 MC38 cells. Tumor volumes were measured on days 56, 59, and 63. The results are depicted in FIG. 13. […] At day 59, 8/8 mice from Group 3, 1/2 mice from Group 4, 1/1 mouse from Group 6, and 2/2 mice from Group 7 were tumor-free, and by day 63, all mice in Group 3, Group 4, Group 6, and Group 7 were tumor-free.
75 animals were staged into 3 treatment groups 7 days after implantation with hPD-L1 MC38 tumor cells. […] Tumor volumes were measured every 3-4 days, from Day 11 until Day 35. 3 days after the 1st dose, 2nd dose and 3rd dose, 4 mice from each group were sacrificed for tumor and LN analyses, leaving 13 mice for tumor volume measurements throughout the study period.

huCTLA4 = huCTLA4 (Homo sapiens, UniProt P16410); test: Flow binding to CHO cells stably expressing CTLA4; design: huCTLA4 and huPD-L1, full-length mammalian surface expression constructs were generated; expressed in transfected cells; host or cells: CHO cells, lentiviral transduction, sorted to >98% purity; conditions: for CTLA4 MFI at 33.3 nM: Table E19, CHO cells stably expressing CTLA4
How it was run: as §1

CD28 [5] = target: T1, CD28; test: Jurkat/IL2 + K562/OKT3 (no PD-L1) reporter assay of CD80 ECD-Fc (effector); assay type: cell-based; design: host or cells: Jurkat cells expressing an IL-2-luciferase reporter; conditions: aAPC without PD-L1
Method: The bioactivity of the generated molecules also was assessed using a Jurkat report assay as described in Examples 9 to assess CD28 costimulation of the molecules.

[6] = re-challenged on day 49 with hPD-L1 MC38 cells

huPD-L1, sequence (Q9NZQ7 19-290): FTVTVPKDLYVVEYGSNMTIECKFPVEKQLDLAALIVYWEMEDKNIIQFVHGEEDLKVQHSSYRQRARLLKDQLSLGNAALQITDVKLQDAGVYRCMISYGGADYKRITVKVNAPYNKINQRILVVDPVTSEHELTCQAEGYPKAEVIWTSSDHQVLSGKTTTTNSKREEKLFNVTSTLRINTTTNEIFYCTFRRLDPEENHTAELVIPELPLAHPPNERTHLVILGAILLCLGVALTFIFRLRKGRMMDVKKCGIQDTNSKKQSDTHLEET
huCTLA4, sequence (P16410 36-223): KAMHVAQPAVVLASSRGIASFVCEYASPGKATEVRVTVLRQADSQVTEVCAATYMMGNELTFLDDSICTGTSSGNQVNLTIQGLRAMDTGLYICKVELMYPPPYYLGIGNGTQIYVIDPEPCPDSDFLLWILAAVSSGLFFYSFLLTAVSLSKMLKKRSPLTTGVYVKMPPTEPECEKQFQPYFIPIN

Molecule | CD28 costimulation, FcR Dependent Cross-Linking (No PD-L1), 0.6 nM (CD28 [1]) | CD28 costimulation, FcR Dependent Cross-Linking (No PD-L1), 50 nM (CD28 [1]) | PD-L1-Dependent CD28 Costimulation, +PD-L1, 0.6 nM (CD28 [2]) | PD-L1-Dependent CD28 Costimulation, +PD-L1, 50 nM (CD28 [2]) | PD-L1-Dependent CD28 Costimulation, No PD-L1, 50 nM (CD28 [2]) | PD-L1-Dependent CD28 Costimulation, No PD-L1, […] (CD28 [2]) | Average Relative Luminescence Units (CD28 [3]) | CD28 MFI at 33.3 nM (CD28 [4]) | PD-L1 MFI at 33.3 nM (huPD-L1) | CTLA4 MFI at 33.3 nM (huCTLA4) | further results
A71D/L72V/E95K: variant CD80 IgV-Fc, IgV SEQ ID NO:192 (protein) VIHVTKEVKEVATLSCGHNVSVEELAQTRIYWQKEKKMVLTMMSGDMNIWPEYKNRTIFDITNNLSIVILDVRPSDEGTYECVVLKYEKDAFKRKHLAEVTLSVKAD | 1821 | 7109 | 524 | 755 | 644 | 466 | 2939 Relative Luminescence Units |  |  |  | 
E23G/A26S/E35D/T62N/A71D/L72V/L85M: variant CD80 IgV-Fc, IgV SEQ ID NO:216 (protein) VIHVTKEVKEVATLSCGHNVSVGELSQTRIYWQKDKKMVLTMMSGDMNIWPEYKNRTIFDINNNLSIVILDVRPSDEGTYECVVMKYEKDAFKREHLAEVTLSVKAD | 2022 | 7855 | 524 | 695 | 606 | 566 | 2067 Relative Luminescence Units |  |  |  | 
E35D/M47L: variant CD80 IgV-Fc, IgV SEQ ID NO:208 (protein) VIHVTKEVKEVATLSCGHNVSVEELAQTRIYWQKDKKMVLTMMSGDLNIWPEYKNRTIFDITNNLSIVILALRPSDEGTYECVVLKYEKDAFKREHLAEVTLSVKAD | 2119 | 8685 |  |  |  |  | 1110 Relative Luminescence Units | 411 | 7529 | 48010 | mice with no detectable tumors (tumor-free) upon completion of the study (MC38 hPD-L1 tumor cells; 100 μg on days 7, 9 and 11, 11 mice per group): 1 mice; tumor growth / tumor volume (MC38 hPD-L1 tumor cells; i.p. dosing, compared to Fc control or anti-PD-L1): dose-dependent decrease in tumor volumes; tumor-free mice after re-challenge, day 59 (MC38 hPD-L1 tumor cells; [6]): 1/1; tumor-free mice after re-challenge, day 63 (MC38 hPD-L1 tumor cells; [6]): tumor-free
CD80 (A91G/I118V/T120S/T130A) ECD-Fc: variant full CD80 ECD fused to effector human IgG1 Fc (SEQ ID NO:1527) (protein) VIHVTKEVKEVATLSCGHNVSVEELAQTRIYWQKEKKMVLTMMSGDMNIWPEYKNRTIFDITNNLSIVILALRPSDEGTYECVVLKYEKDGFKREHLAEVTLSVKADFPTPSISDFEVPSSNIRRIICSASGGFPEPHLSWLENGEELNAINTTVSQDPETELYAVSSKLDFNMTTNHSFMCLIKYGHLRVNQTFNWNTTKQEHFPDN |  |  |  |  |  |  |  |  |  |  | Jurkat/CD28 MFI at 66.7 nM (CD28 [4]; 66.7 nM): 720; EC50 (CD28 [4]; flow binding, read-out: Jurkat/CD28 EC50): > 200 nM; CHO/PD-L1 MFI at 66.7 nM (huPD-L1; 66.7 nM): 107; Relative Luminescence at 98 pM (CD28 [5]; 98 pM): 1098 RLU; Relative Luminescence at 391 pM (CD28 [5]; 391 pM): 1119 RLU; Relative Luminescence at 1563 pM (CD28 [5]; 1563 pM): 1288 RLU; Relative Luminescence at 6250 pM (CD28 [5]; 6250 pM): 1761 RLU; Relative Luminescence at 25000 pM (CD28 [5]; 25000 pM): 2209 RLU; Relative Luminescence at 100000 pM (CD28 [5]; 100000 pM): 2750 RLU; CHO/CTLA4 MFI at 66.7 nM (huCTLA4; 66.7 nM): 24801; EC50 (huCTLA4; flow binding): 4.3 nM

Further lines, with some results ahead:

CD28 costimulation, FcR Dependent Cross-Linking (No PD-L1), 0.6 nM (CD28 [1]) | CD28 costimulation, FcR Dependent Cross-Linking (No PD-L1), 50 nM (CD28 [1]) | PD-L1-Dependent CD28 Costimulation, +PD-L1, 0.6 nM (CD28 [2]) | PD-L1-Dependent CD28 Costimulation, +PD-L1, 50 nM (CD28 [2]) | PD-L1-Dependent CD28 Costimulation, No PD-L1, 50 nM (CD28 [2]) | PD-L1-Dependent CD28 Costimulation, No PD-L1, […] (CD28 [2]) | Average Relative Luminescence Units (CD28 [3]) | CD28 MFI at 33.3 nM (CD28 [4]) | PD-L1 MFI at 33.3 nM (huPD-L1) | CTLA4 MFI at 33.3 nM (huCTLA4) | Molecule | further results
1337 | 1510 | 529 | 476 | 440 | 417 |  |  |  |  | E35G/K54E/A71D/L72P: variant CD80 IgV-Fc, IgV SEQ ID NO:219 (protein) VIHVTKEVKEVATLSCGHNVSVEELAQTRIYWQKGKKMVLTMMSGDMNIWPEYENRTIFDITNNLSIVILDPRPSDEGTYECVVLKYEKDAFKREHLAEVTLSVKAD | CD28 costimulation and IL-2 production (Pan T cells): did not generate significant costimulation and IL-2 production
1880 | 7015 | 611 | 2224 | 720 | 511 | 3230 Relative Luminescence Units | 196 | 4039 | 48005 | E35D/D46V/L85Q: variant CD80 IgV-Fc, IgV SEQ ID NO:203 (protein) VIHVTKEVKEVATLSCGHNVSVEELAQTRIYWQKDKKMVLTMMSGVMNIWPEYKNRTIFDITNNLSIVILALRPSDEGTYECVVQKYEKDAFKREHLAEVTLSVKAD | Relative Luciferase Units (RLU), CD80 Conc 5.0 nM (CD28 [2]; Table E21, Jurkat/IL2 + CHO/OKT3/PD-L1, CD80 Conc 5.0 nM): 410 RLU
